T1: B3GNT2 (Homo sapiens, UniProt Q9NY97)
T1 construct: The respective ORFs of candidate genes [CD274 (NM_014143), MCL1 (NM_021960), JUNB (NM_002229), and B3GNT2 (NM_006577)] were synthesized; expressed in transfected cells; host or cells: A375 melanoma cells (lentiviral ORF overexpression)
T1 sequence (Q9NY97 1-397): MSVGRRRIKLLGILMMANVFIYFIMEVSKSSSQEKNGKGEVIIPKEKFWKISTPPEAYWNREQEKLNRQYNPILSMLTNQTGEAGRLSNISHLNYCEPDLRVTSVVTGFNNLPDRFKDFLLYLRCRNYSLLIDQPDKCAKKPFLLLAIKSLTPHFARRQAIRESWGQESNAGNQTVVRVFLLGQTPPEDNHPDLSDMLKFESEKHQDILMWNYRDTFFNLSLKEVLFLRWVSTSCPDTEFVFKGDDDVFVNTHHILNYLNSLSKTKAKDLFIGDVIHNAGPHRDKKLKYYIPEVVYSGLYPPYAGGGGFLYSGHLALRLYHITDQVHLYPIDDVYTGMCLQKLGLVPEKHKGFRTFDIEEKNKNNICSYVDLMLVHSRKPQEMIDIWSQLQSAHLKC

B1: CALR (protein)
chain: EPAVYFKEQFLDGDGWTSRWIESKHKSDFGKFVLSSGKFYGDEEKDKGLQTSQDARFYALSASFEPFSNKGQTLVVQFTVKHEQNIDCGGGYVKLFPNSLDQTDMHGDSEYNIMFGPDICGPGTKKVHVIFNYKGKNVLINKDIRCKDDEFTHLYTLIVRPDNTYEVKIDNSQVESGSLEDDWDFLPPKKIKDPDASKPEDWDERAKIDDPTDSKPEDWDKPEHIPDPDAKKPEDWDEEMDGEWEPPVIQNPEYKGEWKPRQIDNPDYKGTWIHPEIDNPEYSPDPSIYAYDNFGVLGLDLWQVKSGTIFDNFLITNDEAYAEEFGNETWGVTKAAEKQMKDKQDEEQRLKEEEEDKKRKEEEEAEDKEDDEDKDEDEEDEEDKEEDEEEDVPGQAKDEL
B2: MYL9 (protein)
chain: SSKRAKAKTTKKRPQRATSNVFAMFDQSQIQEFKEAFNMIDQNRDGFIDKEDLHDMLASLGKNPTDEYLEGMMSEAPGPINFTMFLTMFGEKLNGTDPEDVIRNAFACFDEEASGFIHEDHLRELLTTMGDRFTDEEVDEMYREAPIDKKGNFNYVEFTRILKHGAKDKDD
B3: FAM3A (protein)
chain: FPRIQQLFTSPESSVTAAPRARKYKCGLPQPCPEEHLAFRVVSGAANVIGPKICLEDKMLMSSVKDNVGRGLNIALVNGVSGELIEARAFDMWAGDVNDLLKFIRPLHEGTLVFVASYDDPATKMNEETRKLFSELGSRNAKELAFRDSWVFVGAKGVQNKSPFEQHVKNSKHSNKYEGWPEALEMEGCIPRRSTAS
B4: HSD17B12 (protein)
chain: MESALPAAGFLYWVGAGTVAYLALRISYSLFTALRVWGVGNEAGVGPGLGEWAVVTGSTDGIGKSYAEELAKHGMKVVLISRSKDKLDQVSSEIKEKFKVETRTIAVDFASEDIYDKIKTGLAGLEIGILVNNVGMSYEYPEYFLDVPDLDNVIKKMININILSVCKMTQLVLPGMVERSKGAILNISSGSGMLPVPLLTIYSATKTFVDFFSQCLHEEYRSKGVFVQSVLPYFVATKLAKIRKPTLDKPSPETFVKSAIKTVGLQSRTNGYLIHALMGSIISNLPSWIYLKIVMNMNKSTRAHYLKKTKKN
B5: HYOU1 (protein)
chain: LAVMSVDLGSESMKVAIVKPGVPMEIVLNKESRRKTPVIVTLKENERFFGDSAASMAIKNPKATLRYFQHLLGKQADNPHVALYQARFPEHELTFDPQRQTVHFQISSQLQFSPEEVLGMVLNYSRSLAEDFAEQPIKDAVITVPVFFNQAERRAVLQAARMAGLKVLQLINDNTATALSYGVFRRKDINTTAQNIMFYDMGSGSTVCTIVTYQMVKTKEAGMQPQLQIRGVGFDRTLGGLEMELRLRERLAGLFNEQRKGQRAKDVRENPRAMAKLLREANRLKTVLSANADHMAQIEGLMDDVDFKAKVTRVEFEELCADLFERVPGPVQQALQSAEMSLDEIEQVILVGGATRVPRVQEVLLKAVGKEELGKNINADEAAAMGAVYQAAALSKAFKVKPFVVRDAVVYPILVEFTREVEEEPGIHSLKHNKRVLFSRMGPYPQRKVITFNRYSHDFNFHINYGDLGFLGPEDLRVFGSQNLTTVKLKGVGDSFKKYPDYESKGIKAHFNLDESGVLSLDRVESVFETLVEDSAEEESTLTKLGNTISSLFGGGTTPDAKENGTDTVQEEEESPAEGSKDEPGEQVELKEEAEAPVEDGSQPPPPEPKGDATPEGEKATEKENGDKSEAQKPSEKAEAGPEGVAPAPEGEKKQKPARKRRMVEEIGVELVVLDLPDLPEDKLAQSVQKLQDLTLRDLEKQEREKAANSLEAFIFETQDKLYQPEYQEVSTEEQREEISGKLSAASTWLEDEGVGATTVMLKEKLAELRKLCQGLFFRVEERKKWPERLSALDNLLNHSSMFLKGARLIPEMDQIFTEVEMTTLEKVINETWAWKNATLAEQAKLPATEKPVLLSKDIEAKMMALDREVQYLLNKAKFTKPRPRPKDKNGTRAEPPLNASASDQGEKVIPPAGQTEDAEPISEPEKVETGSEPGDTEPLELGGPGAEPEQKEQSTGQKRPLKNDEL
B6: TGM3 (protein)
chain: AALGVQSINWQTAFNRQAHHTDKFSSQELILRRGQNFQVLMIMNKGLGSNERLEFIVSTGPYPSESAMTKAVFPLSNGSSGGWSAVLQASNGNTLTISISSPASAPIGRYTMALQIFSQGGISSVKLGTFILLFNPWLNVDSVFMGNHAEREEYVQEDAGIIFVGSTNRIGMIGWNFGQFEEDILSICLSILDRSLNFRRDAATDVASRNDPKYVGRVLSAMINSNDDNGVLAGNWSGTYTGGRDPRSWNGSVEILKNWKKSGFSPVRYGQCWVFAGTLNTALRSLGIPSRVITNFNSAHDTDRNLSVDVYYDPMGNPLDKGSDSVWNFHVWNEGWFVRSDLGPSYGGWQVLDATPQERSQGVFQCGPASVIGVREGDVQLNFDMPFIFAEVNADRITWLYDNTTGKQWKNSVNSHTIGRYISTKAVGSNARMDVTDKYKYPEGSDQERQVFQKALGKLKPNTPFAATSSMGLETEEQEPSIIGKLKVAGMLAVGKEVNLVLLLKNLSRDTKTVTVNMTAWTIIYNGTLVHEVWKDSATMSLDPEEEAEHPIKISYAQYEKYLKSDNMIRITAVCKVPDESEVVVERDIILDNPTLTLEVLNEARVRKPVNVQMLFSNPLDEPVRDCVLMVEGSGLLLGNLKIDVPTLGPKEGSRVRFDILPSRSGTKQLLADFSCNKFPAIKAMLSIDVAE
B7: PIP (protein)
chain: QDNTRKIIIKNFDIPKSVRPNDEVTAVLAVQTELKECMVVKTYLISSIPLQGAFNYKYTACLCDDNPKTFYWDFYTNRTVQIAAVVDVIRELGICPDDAAVIPIKNNRFYTIEILKVE
B8: FAM3C (protein)
chain: QVFEIKMDASLGNLFARSALDTAARSTKPPRYKCGISKACPEKHFAFKMASGAANVVGPKICLEDNVLMSGVKNNVGRGINVALANGKTGEVLDTKYFDMWGGDVAPFIEFLKAIQDGTIVLMGTYDDGATKLNDEARRLIADLGSTSITNLGFRDNWVFCGGKGIKTKSPFEQHIKNNKDTNKYEGWPEVVEMEGCIPQKQD
B9: SLC25A4 (protein)
chain: GDHAWSFLKDFLAGGVAAAVSKTAVAPIERVKLLLQVQHASKQISAEKQYKGIIDCVVRIPKEQGFLSFWRGNLANVIRYFPTQALNFAFKDKYKQLFLGGVDRHKQFWRYFAGNLASGGAAGATSLCFVYPLDFARTRLAADVGKGAAQREFHGLGDCIIKIFKSDGLRGLYQGFNVSVQGIIIYRAAYFGVYDTAKGMLPDPKNVHIFVSWMIAQSVTAVAGLVSYPFDTVRRRMMMQSGRKGADIMYTGTVDCWRKIAKDEGAKAFFKGAWSNVLRGMGGAFVLVLYDEIKKYV
B10: SLC25A13 (protein)
chain: AAAKVALTKRADPAELRTIFLKYASIEKNGEFFMSPNDFVTRYLNIFGESQPNPKTVELLSGVVDQTKDGLISFQEFVAFESVLCAPDALFMVAFQLFDKAGKGEVTFEDVKQVFGQTTIHQHIPFNWDSEFVQLHFGKERKRHLTYAEFTQFLLEIQLEHAKQAFVQRDNARTGRVTAIDFRDIMVTIRPHVLTPFVEECLVAAAGGTTSHQVSFSYFNGFNSLLNNMELIRKIYSTLAGTRKDVEVTKEEFVLAAQKFGQVTPMEVDILFQLADLYEPRGRMTLADIERIAPLEEGTLPFNLAEAQRQQKASGDSARPVLLQVAESAYRFGLGSVAGAVGATAVYPIDLVKTRMQNQRSTGSFVGELMYKNSFDCFKKVLRYEGFFGLYRGLLPQLLGVAPEKAIKLTVNDFVRDKFMHKDGSVPLAAEILAGGCAGGSQVIFTNPLEIVKIRLQVAGEITTGPRVSALSVVRDLGFFGIYKGAKACFLRDIPFSAIYFPCYAHVKASFANEDGQVSPGSLLLAGAIAGMPAASLVTPADVIKTRLQVAARAGQTTYSGVIDCFRKILREEGPKALWKGAGARVFRSSPQFGVTLLTYELLQRWFYIDFGGVKPMGSEPVPKSRINLPAPNPDHVGGYKLAVATFAGIENKFGLYLPLFKPSVSTSKAIGGGP
B11: PRDX2 (protein)
chain: ASGNARIGKPAPDFKATAVVDGAFKEVKLSDYKGKYVVLFFYPLDFTFVCPTEIIAFSNRAEDFRKLGCEVLGVSVDSQFTHLAWINTPRKEGGLGPLNIPLLADVTRRLSEDYGVLKTDEGIAYRGLFIIDGKGVLRQITVNDLPVGRSVDEALRLVQAFQYTDEHGEVCPAGWKPGSDTIKPNVDDSKEYFSKHN

Biological target: T1, B3GNT2
Assay: Co-IP of FLAG-tagged B3GNT2 followed by mass spectrometry
Assay type: cell-based
Set-up: C-term IgG / C-term flag: unit not given here
Details: Co-IP with FLAG antibody, C-terminally FLAG-tagged B3GNT2; mass spectrometry count, unit not given
In short: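 Co-purifying proteins were identified by fractionated nano-LC–MS/MS on an Orbitrap Elite, run data-dependent. Beforehand, lysates in 1% Triton X-100/HEPES buffer were incubated overnight at 4° C with anti-FLAG or […] and pulled down on Protein A/G magnetic beads for 4 h. Duplicate biological replicates.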

First: B1
Second: B2
The C-term flag of the first is higher: 20 for the first, 0 for the second.

Compared with B3, B4 is lower in C-term flag: 18 for the first, 10 for the second.

Going from B5 to B6, the C-term flag falls from 27 to 5.

Going from B7 to B8, the C-term flag rises from 3 to 23.

First: B9
Second: B10
The C-term flag of the first is higher: 14 for the first, 0 for the second.

Molecule B11 has a C-term flag of 5.

Same assay, conditions: Co-IP with FLAG antibody, N-terminally FLAG-tagged B3GNT2; mass spectrometry count, unit not given

First: B1
Second: B2
The “N-term FLAG” value of the first is higher: 6 for the first, 3 for the second.

First: B3
Second: B4
The “N-term FLAG” value of the first is lower: 9 for the first, 10 for the second.

Compared with B5, B6 is higher in “N-term FLAG” value: 0 for the first, 9 for the second.

Going from B7 to B8, the “N-term FLAG” value falls from 4 to 2.

Going from B9 to B10, the “N-term FLAG” value falls from 9 to 3.

In the case of B11, the “N-term FLAG” value is reported as 9.

Same assay, conditions: Co-IP with IgG control antibody, C-terminally FLAG-tagged B3GNT2; mass spectrometry count, unit not given

B1 and B2 are the same in “C-term IgG” value: 0 for the first, 0 for the second.

B3 and B4 are the same in “C-term IgG” value: 0 for the first, 0 for the second.

Compared with B5, B6 is higher in “C-term IgG” value: 0 for the first, 3 for the second.

Going from B7 to B8, the “C-term IgG” value falls from 2 to 0.

B9 and B10 are the same in “C-term IgG” value: 0 for the first, 0 for the second.

With B11 the “C-term IgG” value was 0.

Same assay, conditions: Co-IP with IgG control antibody, N-terminally FLAG-tagged B3GNT2; mass spectrometry count, unit not given

B1 and B2 are the same in “N-term IgG” value: 0 for the first, 0 for the second.

B3 and B4 are the same in “N-term IgG” value: 0 for the first, 0 for the second.

First: B5
Second: B6
The “N-term IgG” value of the first is lower: 0 for the first, 2 for the second.

B7 and B8 are the same in “N-term IgG” value: 0 for the first, 0 for the second.

B9 and B10 are the same in “N-term IgG” value: 0 for the first, 0 for the second.

B11 was tested, and the “N-term IgG” value was 5.

From patent US20240261333A1, “NOVEL TARGETS FOR ENHANCING ANTI-TUMOR IMMUNITY” (THE BROAD INSTITUTE, INC., priority 2021, published 2024)
